Experimental data from the supplement of paper PMC9112550, “Optimization of the antimicrobial peptide Bac7 by deep mutational scanning” (BMC Biology, 2022).

tested on: Escherichia coli TOP10; test: shrunken log2 fold change of peptide-encoding DNA abundance (4.5 h post-induction vs induction); higher = less antimicrobial activity (less host growth inhibition); conditions: time post-induction: 4.5 h; library: site-saturation at positions 5, 18, 19, 20
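Note: peptides expressed intracellularly from a pBAD plasmid library in pooled LB shake-flask culture, induced with 0.3% L-arabinose, DNA abundance read by NGS, three biological replicates, DESeq2 with apeglm shrinkage.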

Sequence	shrunken log2 fold change
RRIRMRPPRLPRPRPRPNGCPRP	0.254
RRIRMRPPRLPRPRPRPNGNPRP	0.261
RRIRMRPPRLPRPRPRPNGYPRP	0.0495
RRIRMRPPRLPRPRPRPNKNPRP	0.152
RRIRMRPPRLPRPRPRPNKQPRP	0.0442
RRIRMRPPRLPRPRPRPNLGPRP	-0.0136
RRIRMRPPRLPRPRPRPNLKPRP	0.158
RRIRMRPPRLPRPRPRPNMSPRP	0.0106
RRIRMRPPRLPRPRPRPNQAPRP	-0.00973
RRIRMRPPRLPRPRPRPNWHPRP	-0.0297
RRIRMRPPRLPRPRPRPNYAPRP	-0.193
RRIRMRPPRLPRPRPRPNYCPRP	-0.0723
RRIRMRPPRLPRPRPRPNYSPRP	-0.416
RRIRMRPPRLPRPRPRPPAFPRP	0.82
RRIRMRPPRLPRPRPRPPAQPRP	1.08
RRIRMRPPRLPRPRPRPPCLPRP	-0.157
RRIRMRPPRLPRPRPRPPCWPRP	0.162
RRIRMRPPRLPRPRPRPPDKPRP	1.03
RRIRMRPPRLPRPRPRPPDLPRP	0.129
RRIRMRPPRLPRPRPRPPFTPRP	0.309
RRIRMRPPRLPRPRPRPPKPPRP	0.717
RRIRMRPPRLPRPRPRPPLAPRP	1.48
RRIRMRPPRLPRPRPRPPMHPRP	0.704
RRIRMRPPRLPRPRPRPPMTPRP	0.789
RRIRMRPPRLPRPRPRPPNAPRP	1.11

Sequence	shrunken log2 fold change
RRIRMRPPRLPRPRPRPPNDPRP	0.574
RRIRMRPPRLPRPRPRPPNIPRP	-0.113
RRIRMRPPRLPRPRPRPPNTPRP	0.431
RRIRMRPPRLPRPRPRPPPDPRP	1.9
RRIRMRPPRLPRPRPRPPPVPRP	1.65
RRIRMRPPRLPRPRPRPPPYPRP	1.15
RRIRMRPPRLPRPRPRPPQLPRP	0.279
RRIRMRPPRLPRPRPRPPSCPRP	0.932
RRIRMRPPRLPRPRPRPPSPPRP	1.57
RRIRMRPPRLPRPRPRPPTFPRP	0.122
RRIRMRPPRLPRPRPRPPTIPRP	0.301
RRIRMRPPRLPRPRPRPPTPPRP	1.66
RRIRMRPPRLPRPRPRPPYGPRP	0.294
RRIRMRPPRLPRPRPRPPYMPRP	-0.135
RRIRMRPPRLPRPRPRPPYRPRP	0.00408
RRIRMRPPRLPRPRPRPPYSPRP	-0.0464
RRIRMRPPRLPRPRPRPQAAPRP	0.87
RRIRMRPPRLPRPRPRPQAYPRP	-0.0933
RRIRMRPPRLPRPRPRPQCKPRP	-0.0461
RRIRMRPPRLPRPRPRPQCMPRP	-0.0822
RRIRMRPPRLPRPRPRPQECPRP	0.313
RRIRMRPPRLPRPRPRPQEGPRP	0.0197
RRIRMRPPRLPRPRPRPQENPRP	0.48
RRIRMRPPRLPRPRPRPQFHPRP	-0.237
RRIRMRPPRLPRPRPRPQFKPRP	-0.138

Sequence	shrunken log2 fold change
RRIRMRPPRLPRPRPRPQHDPRP	-0.202
RRIRMRPPRLPRPRPRPQHWPRP	0.155
RRIRMRPPRLPRPRPRPQITPRP	-0.166
RRIRMRPPRLPRPRPRPQKTPRP	-0.0249
RRIRMRPPRLPRPRPRPQKWPRP	-0.00664
RRIRMRPPRLPRPRPRPQLRPRP	0.357
RRIRMRPPRLPRPRPRPQLYPRP	0.284
RRIRMRPPRLPRPRPRPQMHPRP	0.947
RRIRMRPPRLPRPRPRPQNHPRP	-0.337
RRIRMRPPRLPRPRPRPQQPPRP	0.0363
RRIRMRPPRLPRPRPRPQQQPRP	0.246
RRIRMRPPRLPRPRPRPQRMPRP	0.583
RRIRMRPPRLPRPRPRPQSWPRP	0.141
RRIRMRPPRLPRPRPRPQTFPRP	-0.0186
RRIRMRPPRLPRPRPRPQVGPRP	0.12
RRIRMRPPRLPRPRPRPQWLPRP	0.351
RRIRMRPPRLPRPRPRPQWYPRP	-0.161
RRIRMRPPRLPRPRPRPQYCPRP	-0.0737
RRIRMRPPRLPRPRPRPQYEPRP	-0.148
RRIRMRPPRLPRPRPRPRACPRP	0.593
RRIRMRPPRLPRPRPRPRAMPRP	1.42
RRIRMRPPRLPRPRPRPRCPPRP	0.757
RRIRMRPPRLPRPRPRPRCVPRP	0.581
RRIRMRPPRLPRPRPRPRCYPRP	-0.00529
RRIRMRPPRLPRPRPRPREQPRP	0.0355
